Experimental data as given in patent US20220396758A1 (University of California, published 2022).

Molecular target: T1, covalently-linked trimer of an N-terminal truncated ClpX variant (ClpX-ΔN3) (E. coli, UniProt A7ZIJ6 62-424)
T1 construct: About 30-100 nM was present in the trans solution with ATP; also called synthetically designed trimer of ClpX subunits expressed as a single chain
Assay: nanopore ionic current recording; substrate cis, ClpX/ATP trans

B1: substrate protein S1 (single N-terminal Smt3 domain, 65-amino-acid charged flexible tail, C-terminal 11 amino acid ssrA tag) (other)
chain: MGSSHHHHHHGSGLVPRGSASMSDSEVNQEAKPEVKPEVKPETHINLKVSDGSSEIFFKIKKTTPLRRLMEAFAKRQGKEMDSLRFLYDGIRIQADQTPEDLDMEDNDIIEAHREQIGGGGSSGGSGGSGSSGDGGSSGGSGGSGSSGDGGSSGGSGGDGSSGDGGSDGDSDGSDGDGDSDGDDAANDENYALAA
notes: Engineered fusion expressed in E. coli BL21 (DE3)*; About 1-2 uM was added to the cis well; also called engineered Smt3 protein
binding result: binds
